In patent US5641629, “Spectroscopically detectable nucleic acid ligands”:

Columns and labels:
serum albumin (HSA) [1] = molecular target: T1, serum albumin (HSA) (Homo sapiens, UniProt P02768 P02768:25-609); assay: FP; HSA up to 150 nM; settings: tags: Sigma; label: 5'-fluorescein (6-FAM, C6 linker)
Method: (§1) The fluorescence polarization of the reaction mixtures was measured directly using 12×75 mm borosilicate glass test tubes. The maximum change in fluorescence polarization was reported as ΔmP (millipolarization units). As reported below in Table 1, the data represent the average of three readings at ambient temperature.

alpha-thrombin [2] = molecular target: T2, alpha-thrombin (Homo sapiens, UniProt P00734;P00734 P00734:328-363,P00734:364-622); assay: FP; 140 mM NaCl, 20 mM Tris acetate, 1 mM CaCl2, 5 mM KCl, 1 mM MgCl2, pH 7.4, room temperature; delta mP +25
serum albumin (HSA) [3] = molecular target: T1, serum albumin (HSA); assay: FP; HSA up to 660 nM; settings: tags: Sigma; label: 5'-thiazole orange (C3 linker)
Method: as §1

alpha-thrombin [4] = molecular target: T2, alpha-thrombin; assay: FP; 140 mM NaCl, 20 mM Tris acetate, 1 mM CaCl2, 5 mM KCl, 1 mM MgCl2, pH 7.4, room temperature; delta mP +80
neutrophil elastase = neutrophil elastase (Homo sapiens, UniProt P08246 P08246:30-267); assay: FP; 150 mM NaCl, 2 mM MgCl2, 6 mM KCl, 10 mM Tris, pH 7.0, room temperature; delta mP +30; settings: tags: Athens Research Technology; label: 5'-fluorescein (6-FAM, C6 linker)
Sequence of neutrophil elastase (P08246 30-267, one chain of several): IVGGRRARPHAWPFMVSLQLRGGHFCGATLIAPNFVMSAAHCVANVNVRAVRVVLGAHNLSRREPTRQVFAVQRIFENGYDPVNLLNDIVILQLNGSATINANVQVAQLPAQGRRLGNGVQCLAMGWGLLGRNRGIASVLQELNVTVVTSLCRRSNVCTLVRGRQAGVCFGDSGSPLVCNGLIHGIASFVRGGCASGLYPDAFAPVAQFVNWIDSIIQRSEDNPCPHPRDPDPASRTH
Method: An elastase solution was prepared from human neutrophil elastase (Athens Research Technology) at 180 nM for the highest concentration in a buffer of 150 mM NaCl, 2 mM MgCl_2, 6 mM KCl, 10 mM TRIS, pH 7.0. Serial dilutions of this solution were then prepared to give a range of concentrations from 0.027 nM to 180 nM.
as §1

serum albumin (HSA) [5] = molecular target: T1, serum albumin (HSA); assay: FP; HSA up to 1080 nM; settings: tags: Sigma; label: fluorescein tethered at the T7 phosphorothioate via iodoacetamide
Method: A thrombin solution was prepared at 600 nM for the highest concentration in the same buffer as was used for Compound 1 in Example 3. Serial dilutions of this solution were then prepared to give a range of concentrations from 0.045 nM to 600 nM.
Compound 6 was then added to a sample of each dilution of thrombin solution and HSA solution to a concentration of 2.3 nM, then vortexed and let stand at room temperature for 15 minutes before fluorescence measurement was taken as described in Example 3. The data from the measurements is presented below as the average of three readings at ambient temperature.

alpha-thrombin [6] = molecular target: T2, alpha-thrombin; assay: FP; 140 mM NaCl, 20 mM Tris acetate, 1 mM CaCl2, 5 mM KCl, 1 mM MgCl2, pH 7.4, room temperature; delta mP +55
serum albumin (HSA) [7] = molecular target: T1, serum albumin (HSA); assay: FP; no detectable binding by fluorescence anisotropy; settings: tags: Sigma; label: fluorescein (C6 linker)
Method: Compound 4 was the control prepared in Example 1, and as such was added to the thrombin dilutions and HSA dilutions at the same respective concentrations of Compounds 1, 2 and 3 above. Similarly, Compound 4 was then subjected to the same conditions as Compounds 1, 2 and 3, and analyzed with an SLM instrument to determine anisotropy values as described in Example 4 below.

alpha-thrombin [8] = molecular target: T2, alpha-thrombin; assay: FP; no detectable binding; anisotropy 0.0403 free, 0.0445 with thrombin
serum albumin (HSA) [9] = molecular target: T1, serum albumin (HSA); assay: FP; HSA up to 247 nM; anisotropy 0.04429 free, 0.04433 with HSA; settings: tags: Sigma; label: 5'-fluorescein (6-FAM, C6 linker)
alpha-thrombin [10] = molecular target: T2, alpha-thrombin; assay: FP; 140 mM NaCl, 20 mM Tris acetate, 1 mM CaCl2, 5 mM KCl, 1 mM MgCl2, pH 7.4, room temperature; delta mP +52

Binder: CAGTCCGTGGTAGGGCAGGTTGGGGTGACTTCGTGGAA (ssDNA) [Compound 2]
- binding result (serum albumin (HSA) [1]): no binding
- Kd (alpha-thrombin [2]): 1.5 nM

Binder: GGTTGGTGTGGTTGG (ssDNA) [Compound 3]
- binding result (serum albumin (HSA) [3]): no binding
- Kd (alpha-thrombin [4]): 5.7 nM

Binder: TAGCGATACTGCGTGGGTTGGGGCGGGTAGGGCCAGCAGTCTCGT (ssDNA) [Compound 5]
- Kd (neutrophil elastase): 2.6 nM

Binder: GGTTGGTGTGGTTGG (ssDNA, PS between G6 and T7) [Compound 6]
- binding result (serum albumin (HSA) [5]): no binding
- Kd (alpha-thrombin [6]): 11.1 nM

Binder: GGTGGTGGTTGTGGT (ssDNA) [Compound 4 (scrambled control)]
- binding result (serum albumin (HSA) [7]): no binding
- binding result (alpha-thrombin [8]): no binding

Binder: GGTTGGTGTGGTTGG (ssDNA) [Compound 1]
- binding result (serum albumin (HSA) [9]): no binding
- Kd (alpha-thrombin [10]): 2 nM
